Residue numbers refer to the chain shown, from its start. Numbers in names are those of the source. Where two headings read alike, the source gives them in different places.

Experimental findings from US20250115677A1, “Anti-CEA Antibody Drug Conjugates and Methods of Use” (BeiGene Switzerland GmbH, priority 2022, published 2025) are described below.

The test system of experiment [1] is MKN45 cells. Description: Payload sensitivity of MKN45 cells. Type of experiment: cell-based, human. As for the experimental part: At Day 0, cells were harvested with 0.25% trypsin-EDTA, plated at 5,000 cells/well in 96-well plates (655090, Greiner), and incubated at 37° C., 5% CO2 overnight. At Day 1, payload compounds were added (5× dilution) into plates. Cell and compound mixtures were incubated at 37° C., 5% CO2 for 6 days. Survival cell signaling was collected at Day 6 with 100 μL of detection reagent (G7573, Promega®); signal was read by Tecan Spark®. Data were analyzed by GraphPad Prism 9.0.0. All killing concentrations were duplicated or triplicated (Table 21 and FIG. 16). “SABC” refers to specific antibody binding capacity.

In experiment [2] the target is T1, chimeric construct (CHIM) (human).
T1 construct: CEACAM6 AA 1-273 joined to the membrane-peripheral region containing domain B3 of CEA (AA 596-687), C-terminal 6xHis; also called chimeric CEA
T1 chain: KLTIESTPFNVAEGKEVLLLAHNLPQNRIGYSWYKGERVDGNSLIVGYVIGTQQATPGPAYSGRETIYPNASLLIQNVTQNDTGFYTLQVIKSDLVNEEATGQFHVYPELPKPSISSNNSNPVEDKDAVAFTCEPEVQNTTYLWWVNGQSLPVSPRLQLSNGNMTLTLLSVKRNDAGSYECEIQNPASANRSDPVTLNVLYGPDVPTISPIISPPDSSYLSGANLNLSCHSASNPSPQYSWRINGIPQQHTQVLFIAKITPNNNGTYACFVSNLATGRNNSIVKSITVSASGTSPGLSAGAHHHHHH
Description: SPR (BIAcore T-200); antibody captured on anti-human IgG chip, CHIM flowed (1.37-333 nM). As for the experimental part: For this experiment, anti-human IgG (Fc) antibody was immobilized on an activated CM5 biosensor chip (Cat. No. BR100839, GE Life Sciences). Anti-CEA antibodies were flowed over the chip surface and captured by anti-human Fab antibody. […] For flow cytometry, CEA-expressing cells (10′ cells/well) were incubated with various concentrations of purified affinity-matured antibodies, followed by binding with Alexa Fluro-647-labeled anti-hu IgG Fc antibody (Cat. No. 409320, BioLegend, USA). Cell fluorescence was quantified using a flow cytometer (Guava easyCyte™ 8HT, Merck-Millipore, USA). The equilibrium dissociation constant (KD) was calculated as the ratio koff/kₒₙ.

The target of experiment [3] is T2, CHIM (Homo sapiens, UniProt P06731, A174T/A211G/A239V/A261S/A267P/C12H/D173N/E253A/E283V/F203L/F272R/F277P/F63I/H123Q/H61N/H9C/I100T/I112V/I113T/I13V/I230T/I80V/INS244IISP/K155N/K214E/L18V/L245P/L62R/N182G/N204S/N246D/N288K/P266S/P287A/Q16K/Q78L/R139H/R17E/R198M/R224N/R250L/R77S/S228P/S280H/T171V/T206K/T210A/T217I/T247S/T276I/V221A/V273I/V291P/V55A/W11L).
T2 construct: CEACAM6 N-terminal part (fusion partner); 6xHis (C); made in house; host or cells: HEK293-based mammalian cell expression system
T2 sequence (P06731 with tags, fused parts or gaps H9C/W11L/C12H/I13V/Q16K/R17E/L18V/V55A/H61N/L62R/F63I/R77S/Q78L/I80V/I100T/I112V/I113T/H123Q/R139H/K155N/T171V/D173N/A174T/N182G/R198M/F203L/N204S/T206K/T210A/A211G/K214E/T217I/V221A/R224N/S228P/I230T/A239V/INS244IISP/L245P/N246D/T247S/R250L/E253A/A261S/P266S/A267P/F272R/V273I/T276I/F277P/S280H/E283V/P287A/N288K/V291P): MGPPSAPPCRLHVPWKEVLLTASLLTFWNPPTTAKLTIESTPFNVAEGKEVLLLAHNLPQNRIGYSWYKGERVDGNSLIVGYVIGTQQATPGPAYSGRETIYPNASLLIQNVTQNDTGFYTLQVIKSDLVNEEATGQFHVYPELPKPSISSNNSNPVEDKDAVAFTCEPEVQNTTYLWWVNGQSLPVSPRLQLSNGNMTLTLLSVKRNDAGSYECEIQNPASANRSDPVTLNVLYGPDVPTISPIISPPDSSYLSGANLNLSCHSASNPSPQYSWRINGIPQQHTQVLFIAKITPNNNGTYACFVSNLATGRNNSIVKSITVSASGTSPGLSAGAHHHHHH
Put plainly: SPR affinity comparison of affinity matured humanized BGA7592 variants on CHIM. Type of experiment: binding. The conditions noted are these: Table 9, SPR on CHIM. As for the experimental part: (§1) Affinity comparison of BGA7592-1F (BGA5366) and other affinity matured clones was made by SPR assay (Table 9) using BIAcore™ T-200 (GE Life Sciences) and flow cytometry (FIG. 7). For this experiment, anti-human IgG (Fc) antibody was immobilized on an activated CM5 biosensor chip (Cat. No. BR100839, GE Life Sciences). Anti-CEA antibodies were flowed over the chip surface and captured by anti-human Fab antibody. Then a serial dilution (1.37 nM to 333 nM) of CHIM was flowed over the chip surface and changes in surface plasmon resonance signals were analyzed to calculate the association rates (kon) and dissociation rates (koff) by using the one-to-one Langmuir binding model (BIA Evaluation Software, GE Life Sciences). For flow cytometry, CEA-expressing cells (10′ cells/well) were incubated with various concentrations of purified affinity-matured antibodies, followed by binding with Alexa Fluro-647-labeled anti-hu IgG Fc antibody (Cat. No. 409320, BioLegend, USA). Cell fluorescence was quantified using a flow cytometer (Guava easyCyte™ 8HT, Merck-Millipore, USA). The equilibrium dissociation constant (KD) was calculated as the ratio koff/kon.

Experiment [4] deals with T3, huCEA surface protein (LOVO cells) (Homo sapiens, UniProt P06731).
T3 construct: host or cells: LOVO
T3 sequence (P06731 35-676): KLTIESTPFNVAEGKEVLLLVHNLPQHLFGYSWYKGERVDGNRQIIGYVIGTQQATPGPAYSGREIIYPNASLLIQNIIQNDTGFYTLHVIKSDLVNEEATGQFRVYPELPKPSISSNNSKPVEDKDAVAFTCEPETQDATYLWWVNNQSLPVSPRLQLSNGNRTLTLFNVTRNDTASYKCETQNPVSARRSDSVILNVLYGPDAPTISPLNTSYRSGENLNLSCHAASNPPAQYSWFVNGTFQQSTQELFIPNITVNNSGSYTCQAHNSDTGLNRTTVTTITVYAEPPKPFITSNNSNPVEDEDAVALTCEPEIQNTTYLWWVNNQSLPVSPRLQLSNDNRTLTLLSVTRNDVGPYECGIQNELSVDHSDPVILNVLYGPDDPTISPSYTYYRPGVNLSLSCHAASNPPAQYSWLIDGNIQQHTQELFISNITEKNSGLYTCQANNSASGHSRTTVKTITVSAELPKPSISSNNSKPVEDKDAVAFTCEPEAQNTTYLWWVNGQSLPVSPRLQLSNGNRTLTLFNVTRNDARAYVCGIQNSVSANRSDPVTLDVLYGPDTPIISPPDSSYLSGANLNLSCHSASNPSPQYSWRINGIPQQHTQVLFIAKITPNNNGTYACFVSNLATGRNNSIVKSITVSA
Put plainly: Flow cytometry binding of affinity matured humanized BGA7592 variants to LOVO cells. As for the experimental part: as §1

Experiment [5] deals with T2, CHIM. Description: SPR affinity comparison of affinity matured humanized BGA7592 variants on CHIM. It is filed as binding. The conditions noted are these: Table 11, SPR to CHIM.
In experiment [6] the target is T1, chimeric construct (CHIM). Put plainly: SPR; binding to CHIM.

With `COc1cc2cc(c1Cl)N(C)C(=O)C[C@H](OC(=O)[C@H](C)N(C)C(=O)CCC(C)(C)S)[C@]1(C)O[C@H]1[C@H](C)[C@@H]1C[C@@](O)(NC(=O)O1)[C@H](OC)/C=C/C=C(\C)C2` [P1, DM4], the Emax in experiment [1] (MKN45, 6 days) amounted to 97.6. In addition, the EC50 in experiment [1] (MKN45, 6 days, read-out: EC50) was found to be 1.16 nM.

As to `CC[C@@]1(O)C(=O)OCc2c1cc1n(c2=O)Cc2c-1nc1cc(F)c(C)c3c1c2[C@@H](NC(=O)CO)CC3` [P2, DXD], in experiment [1] (Homo sapiens, MKN-45, […]), the EC50 amounted to 2.08 nM and the Emax was determined as 98.1%.

Take `CC[C@@]1(O)C(=O)OCc2c1cc1n(c2=O)Cc2c-1nc1cc(F)c(C)c3c1c2[C@@H](NC(=O)C(C)(C)CO)CC3` [P3, N-((1S,9S)-9-ethyl-5-fluoro-9-hydroxy-4-methyl-10,13-dioxo-2,3,9,10,13,15-hexahydro-1H,12H-benz′[d′]pyrano[3′,4′:6,7]indolizino[1,2-b]quinolin-1-yl)-3-hydroxy-2,2-dimethylpropanamide]: the EC50 in experiment [1] (Homo sapiens, MKN-45, MKN45, 6 days, read-out: EC50) was 0.89 nM. The Emax in experiment [1] (Homo sapiens, MKN-45, MKN45, 6 days, read-out: Emax) worked out at 97%.

B1: BGA7592-1F (antibody, human IgG1, V domains shown)
VH: QVQLVQSGAEVKKPGASVKVSCKASGYIFTSYWLHWVRQAPGQGLEWIGYINPQTGYTSYAQKFQGRVTMTRDTSTSTVYMELSSLRSEDTAVYYCAREYGNYNYPLDYWGQGTLVTVSS
VL: DIQMTQSPSSLSASVGDRVTITCRASENIYGYLAWYQQKPGKVPKLLIYNAKNLVEGVPSRFSGSGSGTDFTLTISSLQPEDVATYYCQHHYGTPYTFGQGTKVEIK
notes: BGA7592-1 with N54Q, N59S, S61A in VH; human IgG1 wild type / kappa format; also called BGA5366
In experiment [2], B1 registered a Kd of 790 nM, a koff of 0.0015 s⁻¹ and a kon of 1900 M⁻¹ s⁻¹.

B2: BGA7592-1F-ph-L (BGA3676): affinity matured clone of BGA7592-1F, "(SEQ ID NO:95)", "improved affinities to huCEA surface protein" (protein)
chain: B1 VL with I29Q, A51F, Y92L
modifications: Synthetic: BGA7592-1F-ph-L VL
With B2, in experiment [3], the Ka was 6700 M⁻¹ s⁻¹ and the Rmax worked out at 184 RU. Moreover, the “affinities to huCEA surface protein” value in experiment [4] is recorded as “improved affinities”.

B3: BGA7592-1F (BGA5366): "BGA7592-1F (also described herein as BGA5366)"; humanized anti-CEA antibody, parent of the affinity matured clones (antibody, V domains shown)
VH: B1 VH
VL: B1 VL
In experiment [3], B3 registered a Ka of 1900 M⁻¹ s⁻¹ and an Rmax of 367 RU.

B4: BGA7592-1F-ph-M (BGA2433): affinity matured clone of BGA7592-1F, "(SEQ ID NO:96)", "improved affinities to huCEA surface protein"; template for further engineering (protein)
chain: B1 VL with I29Q, A51T, Y92L
modifications: Synthetic: BGA7592-1F-ph-M VL
notes: template for further engineering
Turning to B4, the values for the Ka in experiment [3] and in experiment [5] were 2500 M⁻¹ s⁻¹ and 19700 M⁻¹ s⁻¹, respectively. In addition, the Rmax in experiment [3] is reported as 224 RU; in experiment [5], 97.2 RU. Further, in experiment [4], the “affinities to huCEA surface protein” value was “improved affinities”.

B5: BGA7592-1F-ph-M (antibody, human IgG1, V domains shown)
VH: B1 VH
VL: B1 VL with I29Q, A51T, Y92L
notes: human IgG1/kappa; also called BGA2433
As to B5, in experiment [6], the equilibrium dissociation constant (Kd) is 12.6 nM, the koff came to 0.000248 s⁻¹ and the kon is 19700 M⁻¹ s⁻¹. In experiment [2], this molecule yielded a dissociation constant (Kd) of 99 nM, a koff of 0.00025 s⁻¹ and a kon of 2500 M⁻¹ s⁻¹.

B6: BGA7592-1F-ph-L (antibody, human IgG1, V domains shown)
VH: B1 VH
VL: B1 VL with I29Q, A51F, Y92L
notes: human IgG1/kappa; also called BGA3676
Consider B6, for which, in experiment [2], the Kd was determined as 46 nM, the koff is 0.0003 s⁻¹ and the kon stood at 6700 M⁻¹ s⁻¹.
